Target: ECTV-IL18BP expressed and secreted from mammalian cells, biotinylated (ectromelia virus)
Assay: SPR

In the case of IL18 D110A (ligand), the Kd is reported as 0.2 nM, the koff is reported as 3e-05 s⁻¹ and the kon is reported as 260000 M⁻¹ s⁻¹.

Reference: paper PMC3426546
